# Values quoted from earlier work, collected in doi:10.1101/2023.01.28.526057v3 (bioRxiv, 2023).
# Conditions: rat modeling parameter, Table S7, column PBS
substance,measurement,value
liraglutide,t1/2 in SC,57.02 s
